Results reported in paper PMC8141531.

What was measured:
Test in all cases: SPR
[1] = molecular target: human IL-2Rα-Fc chimera (human) (UniProt P01589)
[2] = molecular target: heterodimeric IL-2Rαβ (human IL-2Rα-Fc chimera and human IL-2Rβ-Fc chimera captured together) (human) (UniProt P01589)
[3] = molecular target: human IL-2Rβ-Fc chimera (human) (UniProt P14784)
UniProt P14784, sequence (P14784 27-240, change not shown): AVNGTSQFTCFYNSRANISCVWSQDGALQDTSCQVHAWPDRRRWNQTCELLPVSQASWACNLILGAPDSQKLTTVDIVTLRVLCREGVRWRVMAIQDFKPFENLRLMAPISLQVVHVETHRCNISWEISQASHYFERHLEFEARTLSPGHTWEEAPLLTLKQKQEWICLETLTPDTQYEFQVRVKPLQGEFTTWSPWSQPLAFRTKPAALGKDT

## NKTR-358, a PEGylated form of rhIL-2 (aldesleukin sequence) (from UniProt P60568 21-153) (ligand)
[1]
  Kd: 7.3 µM
[2]
  Kd: 1.7 µM
[3]
  Kd: 88 µM
